Experimental data taken from the DeepSol protein solubility set.

Assay: soluble on expression in E. coli; label from the status in PepcDB or PDB records

Sequence	soluble on expression in E. coli
MGSDKIHHHHHHVSTQFQGVIPPVITPRHADGSIDTSSLKNVTRHLIDGGVSGLFVLGSSGEVPYMTNAERELVVSTIADANASVGARAVPLIVGANEQTTNRVIEEAKKVIGLGADAIVVTSMYYAIGNAAETETHFRSIHAAVDKPIFAYDVPVRTHFKLPTDLLVRLGRDGVIAGVKDSSGDDVSFRQLLLEAKDIPDFDIFTGHEVVVDGALLGGAQGVVPGLGNVDPAGYRRLFDAAQAGDWATAAREQDRLADLFEIVYAPNGRVSGGAAGLGAFKTALQLMGVIESNTMSQPMLSLNDDEAAAIRTILERNGLV	not soluble
MYYERPVFDIVDTWEIREREVLKPVLSVAEEDYCYFVQNTVASAQRSWVDLVANLFNSPDSDIDDALNRFADAPCLHGPTLEPMNLILKGSPMYVYCSFEEMRSCATKRFYEGISNRGVVICTVPPYAEGVTRDDMSVWQNQACVNTCSGKNDLDAYIAFLPTSSLQESSYWHTKNGIYSFLAPSQTDAFCCEILCVGRALFEDRSRKEKLRNCLLKLLNYRLKLLFAAALEHHHHHH	not soluble
MPSTLSEELVGKYLAAQYQVWIDTSVVTLQIGCQSAPLAALLQATGNRSAVYVTACNPASEVATSQENQSAMARLYERLACYSNHIYRGTGIDPSGEWPAEESLLALGIDLSIAKKIGDEFGQNAIVWIDSAAIPHLVLLC	not soluble
MRTLKIEPLTKEAFAPFGDVIETAGSDYFMINNGSTRRYHKLATVETAQPEDNAIISIFSAEKLEMPLRIRMLERHPLGSQAFIPLLGNPFLVVVAPLGDVPVPGLVRAFLTNGRQGVNYHRGVWHHPVLTIEKRDDFLVVDRSGSGNNCDEHFFTEDEQLLLDPQSNQLEHHHHHH	not soluble
MDKLGLSKRGYFDFALKNKKWILLAVSGYGAFRVYHSPSISQKRKRISKLFTLLLNLIEAASDSAETVSVISKDLTEFLRSDSDQIPNSLKQISKIAKSDELNSSLIRFTQAMTVGLIRGIDDGSGSGFTDRVMDKLFTKSGSGFASAIVGSFARNLVVALYSSAGDGSNSKLLDAVFSDDGRRLIGDCVQRFVSTAVSVYLDKTSDVNVFDDLFAGLTNPKHEGKVKQTLVTLCNSAVETFVRASRKPVQLNRSSSCQDSSQTLTVGSTKQATWIDRVSSSLSVPSNRKYVVDLTGRVTFETVRSLLEVLIERANGKVESYVEKVRERGNETRRFVRVKTSLLHSLCLSLCLQIVEAPWMLTPRN	not soluble
MGSDKIHHHHHHMKNRKTPMKEQSPESRRRNFEEVALGYTLEEALEEAQRCLQCPTHPCVSGCPVEIDIPGFIRKLRDGKLEESYRILKSYNNLPAVCGRVCPQEVQCESRCVVGKMKDSEPVAIGRLERFVADWAAENLEEDVKPLAGSKKEKVAVVGSGPAGLTAAADLAKMGYHVDIFEAFHKPGGVLVYGIPEFRLPKRIVEREVSYIRKLGVNFHLNTVVGKTVKVKELLSEYDAVFIGTGAGTPKFMGIPGTNLNGVYSANEFLTRVNLMKAYLFPEYDTPIRVGKKVAVIGAGNTAMDAARSALRLGAEKVYIVYRRTEREMPARREEYHHALEEGIEFLWLTLPIRYIGDANGNVEAMECVRMELKEADGSGRPRPVPIEGSNFVLEVDMVIEAIGQGPNRVLLSEFPGLELNERGYIKADEDTGATSVKGVFAGGDIVTGAATVIKAMGAGKKAAQFIHSYLTGEWNPWQK	not soluble
SPSYTVLGQLPDTDVYIDIDAYEEVKEIPGIKIFQINAPIYYANSDLYSSALKRKTGVNGSENIHTVILDFTQVNFMDSVGVKTLAGIVKEYGDVGIYVYLAGCSAQVVNDLTSNRFFENPALKELLFHSIHDAVLGSQVREA	soluble
MIPVFNITSNRGRLLQQISVGDIWGVGRQWANKLISRGIHTAYDLAMTNPHLLKKCFNAVLMRTAMELQGIACGGLEVLEHHHHHH	not soluble
LQEVGSTFNIEVSILKDQATIMIDTTGSSLFKRGYRVQKGGAPIKENMAAAILALSNWFPDKPLVDPTCGSGTFCIEAAMIGMNIAPGFNRSFAFEEWSWVDKDMVQQVRDDAEQEANYEIELDISGFDIDGRMIEIAKSNAEEAGLSDVITFKQMRLQDFRTDKVNGVVISNPPYGERLLDDKAVDILYNEMGQTFAPLKTWSKFILTSDELFELKYGQKADKKRKLYNGTLKVDLYQFYGERVKRHLI	not soluble
MGHHHHHHSHMLKSERKQIILSQLKQDGFVTLENLTVLLSDTSESTIRRDLDELAADGKLKRVHGGAESIHGLKEEIANSQKAIRNVQEKAQLAGYAADLIKEGDVVFLEASTTNELLIPHLSNRQVTVVTNSIHHAVKLVDLGISTRIIGGKVKHSTDASIGSTALEQIRQLNFDCAFIGANGVDANYFTTPDMEEAVIKRTVIANAQKAYVLADASKLGQITYAKVAEVEKVTIITNASEEGLLKELKEKTRVIEV	soluble
GPGSMVTTDINRDPVKRAMEDGTWRPGQKTAPQQQPQSLGVQCVAAPPQQAPCVPPLLVQYVPAPQAQYTPQPQLMQYVPQQPPQGYYQPRPPLPQPSYYPPGPPPPLQSGYYQQPPVPIQQVYYTQPPSQCYAPQPQYQY	not soluble
MGSDKIHHHHHHMNAQIQIIKTAQGHMALCQDTPKDIAPAWFAVDFWRAKDAVVGSSKGRYTTWFVAFEHSHWVLRHYWRGGLMEKFSKDAYVYTGLENTRAMAELRLLNILYHEDFAVPKPIAANIVRDGLFYRADIIIERVEGAEDLVAKLSKGLMNTEQWQALGATIAQFHQRGVYHADLNAKNILFQPAQTAPITPERFYLIDFDRGELKTPSPQWQQSNLDRLLRSFNKEQGKLPSLAFTADNWSSLMMGYQAAMQSA	not soluble
MIDKSSKRDKEVEPLKDNISILIMGVDGSEMRKSQYGEAVRTDALLLATINKDDKSVKLVSIPRDSRVYIPSRKKLDKITHAHVFGGVESTRDTVERFLNVPVDYYVKFNFESFVQIVDSLGGIDIDVPVTFTEQDSKDQAGMIHLEKGYQHLNGEQALALARTRKIDSDAMRGQRQQLVIEAIAKKAMSVQSISKMGSLLDAVDKNMKTNLTFDDMLAITKNMAGSNLEMEKMQVEGTDKRIGGIYYYIPNEKNVKDISKKLNEHLGVLEHHHHHH	soluble
MGSDKIHHHHHHMLQTINLTQRYATKKLFENVNIKLDKNKRYGLIGANGAGKSTFLKILSKSIDCSSGEVIITSGMKMGVLGQDQYAFEDLSLKDAVLIGNKRLYDAIKEKERLYTEGDLSDDKVNARLGELETICVEEDPMYECEVAIEKILEDLGIPSSKHNDLMKTLPSSDKFKILLAQVLFPKPDILLLDEPTNNLDLNAIEWLENNLKRHEGTMVVISHDRHFLNAVCTHILDLDFHSVREFSGNYDDWYIASTLIAKQQEAERNKKLKEKEELEKFIARFSANASKAKQATSRQKQLDKLDIQSLAVSSRRDPSIIFKPKRTIGNEALECENISKSYDDQIVLNQVSLKVMPKDKIALIGPNGVGKSTLCKILVEELKPDKGVVKWGATVSKGYFPQNVSEEISGEETLYQWLFNFNKKIESAEVRNALGRMLFNGEEQEKCVNALSGGEKHRMVLSKLMLEGGNFLVLDEPTNHLDLEAIIALGEALFKFDGALICVSHDRELIDAYANRIIELVPSPKGASIIDFKGSYEEYLASKK	not soluble
EYRHLVLNQLRNMGGTRFFVSLNNHQIDVDPLPESERKTLVINQVREVLESELSGIPNIEVEFTQRDKLKVFNNELPIDELPLLWAHYSLSFGDLNPPILVMQVEVAQNEWFYLAAVLPAPYINLETNYFELRQ	not soluble
MGSDKIHHHHHHKEKKADTYVTKVTDLTGEEEQVLKLEYDRDGKIIKYGDTPVRYEGDQITIGQMNCLNTGNKLCNVTFQIGKGKARESRARCMLKVGEEVYEADKQTVYDYKGDTIFINSDYRATSDYRFLKKVQGKYVFDQLGRLKEVMTVFTEANDSVSSCHTYYNYDNNINYQANLNLQAYVIDYDGVDSFFYFLLNLGQLRNRTALPNDIGYCMNHGLSTYNVHANYRLDDENPVRIEVLYNYTKLLSRIDLSYNPLN	not soluble
MAKATYACVECGYRTPKPLGRCPSCGSWESFQEVAPAPASRRAKPSPLPLLALSQVDEAEERRFSSGLSEVDRVLGGGFVTGEVVLLGGEPGVGKSTLLLEMAKRMPQRVYYVAGEESPAQIKLRAQRLGVKDLLLVRETRLEPLLALLEEDPPEVLFVDSVQTLEAGGSPGSLVAVREATSALVRFAKESGAAVVLVGHVTKEGVVAGPKSVEHAVDATLYLETAGPYRVLRSAKNRFGPVGEIGVFRMEEAGLLEVENPSEAFLKERPLGVPGSAVALALAGERALALEVQALAAKTPFPAPRRVVQGLDSRRVDVVLAVLERRLGLPLANLDIYVNLAGGLKVQDPGLDLAVALAVYSAVVGRPLPADLALVGEVGLAGEVRRVAGLERRLREGERAGFGRFLHPGNLKRLQEAVEAYLALEHHHHHH	not soluble
MRLPHQLTGSRFFSFSDEGEFLKSVSAVVDEEEFVRIGSLVQAGLMPITSKEVLATMLGVNPGIIWSLENKPERYYRRFKIPKGKGEREIVAPKVGLKVIQKWFSVQLQDCARIDDHVFGFVPGRSHIDAASVHTNANWVYSIDLTNFFPSTPINWVASSLINIGYDADSADRISKLCCYRGALAQGSPASPVLSNISMRGIDAALGALAAEMDVRVTRYADDITFSAAGEFPQVLPERLESLFSQTPWKISQEKTYFSEAPVRLKVHGLVVNGNTVKLTKGYRNKLRAYRHVLQTNRCRQEDLARLSGHVRYASQVSSRDDLEHHHHHH	not soluble
MVAKDYPFYLTVKRANCSLEAPLGSGVAKDEEPSNKRVKPLSRVTSLANLIPPVKTTPLKRFSQTLQRSISFRSESRPDILAPRAWSRNATSSSTKRRDSKLWSETFDVCVNQVLTAKEIKRQEAIFELSQGEEDLIEDLKLAKKAYHDPMLKLSIMTEQELNQIFGTLDSLIPLHEELLSQLRDVRKPDGSTEHVGPILVGWLPCLSSYDSYCSNQVAAKALLDHKKQDHRVQDFLQRCLESPFSRKLDLWNFLDIPRSRLVKYPLLLREILRHTPNDNPDQQHLEEAINIIQGIVAEINTKTGESECRYYKERLLYLEEGQKDSLIDSSRVLCCHGELKNNRGVKLHVFLFQEVLVITRAVTHNEQLCYQLYRQPIPVKDLTLEDLQDGEVRLGGSLRGAFSNNERVKNFFRVSFKNGSQSQTHSLQANDTFNKQQWLNCIRQAKETVLSAAGQAGLLDSEGLVQGPGTENREPQGETKLEQMDQSDSESDCSMDTSEVSLECERMEQTDASCANSRPEESV	soluble
MGTKLSVSLEGASTPETAPRVDRPPTFDPQYGFERPRKVREMKATWEEMEQWKLKPAQRDYCAHHLISLMKCQTQNAPFAGHACDGERGAWDKCEYDDHIMRIKEFERERRLLQRQARKEATA	not soluble
MSSLWLDQARGSEPACPALQGATRADVCIVGGGYTGLWTALQLREQSPGLDIVLLEAQECGAGASGRNGGFMLSWAAKFETLLKVCGTDEALRLLGESERIAADVAGYLKRHGVDAQLRQDGWLWTASNAAQVDSWMPCIELLARHGQQAFVALPADEVRRLSGSAAHLAGVLSRSSATVHPGMYVRGLRRIALAKGIRIYEHTPMRSLRARPQPTVATARGEVRAAKVVLAMNAWSTRFRELNKGVVVVGSDLVATAPHPEALEKIGLTSGVAISDSRLFTNYYRNTCAGEMVFGRGGGDFAFNGAVGRLYEGPSRFAREVAAILHRFYPALAPLGIVRSWSGPIDRSMDGLPCFGHLGGHPDIVYGYGYSGNGVGPTYLGGKFLASMVLENDDAWRHSALARGLRGRFPPEPFRYVGSRVVKAALVRKEAAEDQGQAPARLDTMLAGLAPGGLVPVARKEKALEHHHHHH	not soluble
GPGSMDLLGSQIAAALEEGSRKRKRDVEEGCSALVSHVNSTLDVITTDVRNTLTEQHCEMEERVNRLMKMAGDFATAVDTWQKKASDSVCAVESQQQLLWELLQDVEKRAQERKKEMLKRQEQRMEELRTMLLERIQKAEASMQL	not soluble
